One substance from patent publication US20080213273A1 can be followed below.

Assay [1] has as its target human CD20 (on the human B-cell lymphoma cell line WIL2-S and other CD20+ human B-cell lines) (human) (UniProt P11836). The assay can be described thus: cell-based or functional assay.
Assay [2] has as its target monkey CD20 (on monkey peripheral blood cells) (monkey) (UniProt M4ZHZ6). The assay can be described thus: flow cytometry on monkey peripheral blood, N = 3, mean (SD 3.3); control column 0.2 (0.1). Background: Flow cytometry measures light scatter and fluorescence of single cells or particles in a stream.
Sequence of UniProt M4ZHZ6 (M4ZHZ6 entry or part of it limits assumed): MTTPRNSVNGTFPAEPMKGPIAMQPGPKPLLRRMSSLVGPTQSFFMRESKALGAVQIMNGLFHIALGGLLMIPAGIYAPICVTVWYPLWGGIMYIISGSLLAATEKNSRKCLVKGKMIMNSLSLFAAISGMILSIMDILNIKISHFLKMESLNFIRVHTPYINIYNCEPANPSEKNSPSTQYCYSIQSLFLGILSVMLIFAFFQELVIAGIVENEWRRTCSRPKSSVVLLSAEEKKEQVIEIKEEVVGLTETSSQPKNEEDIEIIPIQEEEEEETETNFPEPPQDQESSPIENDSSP

Sequence of UniProt P11836 (P11836 whole entry): as the sequence (M4ZHZ6 entry or part of it limits assumed) above, with P25S, L31F, A51T, V157A, R217K, S226N, V227I, V239T counted along it

rituximab (antibody) registered an apoptosis of Ramos B-cells, annexin V/propidium iodide flow cytometry in assay [1] of 60 % cell lysis. This substance had a percent positive staining cells in assay [2] of 21.5%.
